Measured values published in patent publication US11421026B2, “Antibodies that bind human cannabinoid 1 (CB1) receptor” (BIRD ROCK BIO, Inc., priority 2015, dated 2022).

Columns and labels:
[1] = target: T1, human CB1 expressing TRex-CHO cells (Homo sapiens, UniProt P21554); type: cell-based; settings: forskolin stimulated TRex-CHO CB1 cells
T1 construct: pcDNA4/TO native full length human CB1 receptor construct was transfected into tetracycline inducible system Trex-CHO and Trex-293 cells; expressed in transfected cells
T1 sequence (P21554 whole entry): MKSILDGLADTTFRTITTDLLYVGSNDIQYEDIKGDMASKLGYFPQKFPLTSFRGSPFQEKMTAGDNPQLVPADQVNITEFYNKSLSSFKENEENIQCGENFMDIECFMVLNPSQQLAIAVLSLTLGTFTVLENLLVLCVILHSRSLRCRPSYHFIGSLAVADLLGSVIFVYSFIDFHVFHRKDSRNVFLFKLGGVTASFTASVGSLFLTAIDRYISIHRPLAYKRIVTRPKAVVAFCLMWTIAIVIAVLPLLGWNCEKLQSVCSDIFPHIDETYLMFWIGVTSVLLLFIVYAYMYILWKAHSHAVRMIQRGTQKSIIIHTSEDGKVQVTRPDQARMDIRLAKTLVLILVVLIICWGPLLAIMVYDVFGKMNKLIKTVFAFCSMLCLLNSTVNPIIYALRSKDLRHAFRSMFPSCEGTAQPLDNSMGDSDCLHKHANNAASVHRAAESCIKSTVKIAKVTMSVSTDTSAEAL
Protocol: Data analysis was performed using GraphPad Prism software.
Data analysis was performed using GraphPad Prism.

[2] = system: CB1 receptor signaling, WIN55,212 induced ERK phosphorylation in Trex-CHO CB1 receptor cells; test: ERK activation assay (western blot); type: cell-based, human; settings: IgG 300 nM; WIN55,212 100 nM, 10 and 15 minutes
Protocol: (§1) Two days before the experiment, Trex-CHO CB1 receptor cells were seeded at 500,000 cells/well into 6-well plates. 1 μg/mL tetracycline was used to induce CB1 receptor expression after 24 hours. Cells were serum starved for at least two hours before the experiment. […] Cell lysates were harvested and the level of ERK activation was determined by western blot. Anti-ERK and Anti-phospho-specific ERK antibodies were obtained from Cell Signaling Inc.
as §1, with “Trex-CHO CB1 receptor-expressing cells were” for “Trex-CHO CB1 receptor cells were”

[3] = system: denatured CB1 protein (His tagged, N/C-termini truncated human CB1); test: Western blot recognition of denatured CB1 protein; type: binding; settings: 2 μg/mL
Protocol: A study was performed to examine whether PA13R3-P1C4 and its humanized variant antibodies recognize epitope(s) on denatured CB1 protein (His tagged, N/C-termini truncated CB1) by western blot analysis. Purified human CB1 protein (750 ng per lane) was mixed with SDS reducing buffer containing beta-mercaptoethanol (Double Helix). […] Membranes were blocked with 5% NFDM/PBS-T for one hour at 22° C. followed by immune-blotting with test antibodies (2 μg/mL) in 5% NFDM/PBS-T overnight at 4° C. Commercial mouse anti-His antibody and mouse anti-CB1 antibody (R&D Systems) were used as positive controls, and rabbit anti-CB1 antibody (Cayman), which recognizes a C-terminal region that was deleted from the recombinant CB1 protein used in this study, served as a negative control.
After overnight incubation, membranes were washed with 0.5% Tween-20 PBS (PBS-T) three times at 22° C. Secondary antibodies AP-conjugated anti-human IgG (1:5000) or anti-mouse IgG or anti-rabbit IgG in 5% NFDM/PBS-T were added to respective membranes and incubated for 1 hour at 22° C. Membranes were washed three times with PBS-T each for 5 minutes. After the final wash, signal was developed by incubating with NBT/BCIP substrate solution at 22° C. and the reaction was stopped by washing the membrane under running water.

[4] = target: T2, CB1 surface expression (CB1 TRex-CHO / TRex-293 cells) (Homo sapiens, UniProt P21554); type: cell-based; settings: tetracycline induced, humanized variants
T2 construct: pcDNA4/TO native full length human CB1 receptor construct was transfected into tetracycline inducible system Trex-CHO and Trex-293 cells; expressed in transfected cells; tetracycline induced
T2 sequence (P21554 whole entry): as above

[5] = target: T3, CB1 (TRex-CHO cells stably expressing human CB1) (Homo sapiens, UniProt P21554); type: cell-based
T3 construct: pcDNA4/TO native full length human CB1 receptor construct was transfected into tetracycline inducible system Trex-CHO and Trex-293 cells; expressed in transfected cells
T3 sequence (P21554 whole entry): as above
Protocol: A cAMP functional assay was performed to measure the antagonism of the antibodies. […] Data analysis was performed using GraphPad Prism.
Cell numbers, forskolin concentration and CP55,940 concentration were optimized according to the manufacturer's instructions. The cAMP antagonist functional assay was performed in white 384-well low volume plates (Greiner). […] Data analysis was performed using GraphPad Prism.
Data analysis was performed using GraphPad Prism. The mean±SD of IC50s and dissociation constants (Kd) shown were measured from at least 2 different experiments.
After 30 minutes incubation at 22° C., 5 μL cAMP-d2 and 5 μL anti-cAMP cryptate were added to the cells and incubated for 1 hour. […] Data analysis was performed using GraphPad Prism.

[6] = target: CB1 receptor (TRex-CHO CB1 cells) (Homo sapiens, UniProt P21554); test: Flow cytometry binding of P1C4 Fab
CB1 receptor (TRex-CHO CB1 cells), sequence (P21554 whole entry): as above
Protocol: To determine PA13R3-P1C4 Fab binding affinity, full binding curves were generated on CB1 receptor by testing a range of concentrations using TRex-CHO cells stably transfected with tetracycline inducible CB1 expression construct by flow cytometry. Three-fold serial dilutions from 3 μM to 0.1 μM were prepared. FITC-conjugated anti-human antibody was used to detect PA13R3-P1C4 Fab.

| Molecule | effect on cAMP levels without exogenous agonist / mechanism [1] | block of WIN55,212 induced ERK phosphorylation [2] | recognition of denatured CB1 protein [3] | inhibition of WIN55,212 induced CB1 receptor internalization [4] | effect on CP55,940-induced reduction in intracellular cAMP levels [5] | IC50 ([5]; all batches, 5 μM forskolin, 9 nM CP55,940, read-out: cAMP IC50 Mean ± SD) [nM] | binding to TRex-CHO CB1 cells [6] |
| --- | --- | --- | --- | --- | --- | --- | --- |
| 36E12B6C2: hybridoma-derived anti-CB1 mAb; HC variable SEQ ID NO: 18, LC variable SEQ ID NO: 22 (antibody, listed as Mus sp., V domains shown) VH: QVQLQQSGAELVRPGSSVKISCKASGYEFSYYWMNWVKQRPGQGLQWIGQIYPGDGDTNYNGKFKGKATLTADKSSSTAYMHLTSLTSEDSAVYFCARSGGNPFAFWGQGTLVTVSA VL: DIQMTQTSSSLSASLGDRVTFSCRASQDISNYLNWYQQKPDGTVKLLIYYTSRLHSGVTSRFRGSGSGTDYSLTISNLEQEDVATYFCQQGHTLPWSFGGGTKLEIK | inverse agonists | blocked | – | – | – | – | – |
| PA13R3-P1C4: phage-derived chimeric anti-CB1 IgG; HC variable SEQ ID NO: 2, LC variable SEQ ID NO: 6 (antibody, V domains shown, PA13R3-P1C4 Heavy chain variable region; PA13R3-P1C4 Light chain variable region) VH: EVQLQQSGAELVRPGVSVKISCKASGYEFSYYWMNWVKQRPGQGLEWIGQIYPGDGETKYNGKFKGKATLTADKSSNTAYMQLSSLTSEDSAVYFCARSHGNYLPYWGQGTLVTVSA VL: DIVLTQSPAIMSASLGERVTMTCTASSSVSSSYLHWYQQKPGSSPKLWIYSTSNLASGVPARFSGSGSGTSYSLTISSMEAEDAATYYCHQYHRSPPTFGAGTKLELK | inverse agonists | blocked | could not recognize denatured and linearized CB1 protein | inhibited | dose-dependently inhibited | 138 ± 21 | – |
| PA13R3-P1C4 Fab: Fab fragment of chimeric PA13R3-P1C4 (antibody, V domains shown) VH: EVQLQQSGAELVRPGVSVKISCKASGYEFSYYWMNWVKQRPGQGLEWIGQIYPGDGETKYNGKFKGKATLTADKSSNTAYMQLSSLTSEDSAVYFCARSHGNYLPYWGQGTLVTVSA VL: DIVLTQSPAIMSASLGERVTMTCTASSSVSSSYLHWYQQKPGSSPKLWIYSTSNLASGVPARFSGSGSGTSYSLTISSMEAEDAATYYCHQYHRSPPTFGAGTKLELK | – | – | – | – | – | – | dose dependently bound |
